The target of experiment [1] is S protein of the SARS-CoV-2 Omicron (B.1.1.529) strain, his-tagged (SARS-CoV-2, Omicron (B.1.1.529) strain) (UniProt P0DTC2). The experiment can be described thus: BLI. For orientation: Biolayer interferometry detects binding as a change in optical thickness at a sensor tip.
Experiment [2] has as its target RBD of the SARS-CoV-2 Delta (B.1.617.2) strain (SARS-CoV-2, Delta (B.1.617.2) strain) (UniProt P0DTC2). The experiment can be described thus: ELISA. (ELISA stands for enzyme-linked immunosorbent assay.)

Take “CR3022 SH100D+SH103Y+IL34W triple mutant (IgG1 format) (antibody)”: the fold increase in binding affinity (BLI) against wild-type CR3022 in experiment [1] amounted to 6.1 fold.
In general, EC50 refers to the midpoint of the concentration-response curve. The substance “CR3022 SH100D+SH103Y+SL33R triple mutant (IgG1 format) (antibody)” displayed a fold increase in binding affinity (BLI) against wild-type CR3022 in experiment [1] of 4.1 fold. In experiment [2], this substance came in with an EC50 of 0.06 nM and a fold lower ELISA EC50 than wild-type CR3022 of 3.4 fold.

These data come from publication PMC11379722.
